Data from patent US20260071182A1 (GAIA BIOMEDICINE, published 2026).
Each block holds one binder with its values, some of them ahead of it.

Legend:
Experiment in all cases: BLI (Octet RED96), target on sensor, monobody in five 2-fold dilutions
[1] = target: T1, Human NKp30/NCR3/CD337 Protein, Fc Tag (NC3-H5259) (human, UniProt O14931 19-135)
T1 construct: Bought from ACROBiosystems, catalog NC3-H5259; not shown: Fc tag of the purchased protein
T1 sequence (looked up): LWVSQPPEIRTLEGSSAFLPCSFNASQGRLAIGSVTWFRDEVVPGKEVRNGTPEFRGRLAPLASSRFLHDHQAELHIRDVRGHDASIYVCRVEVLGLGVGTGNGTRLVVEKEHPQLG
Procedure: (§1) The binding abilities and specificities were examined by using an Octet® RED96 (ForteBio) with bio-layer interferometry. Measurement was performed with the following program: Dip for 50 seconds, Load for x seconds (until a signal of 1.0 nm (NKp46, 2B4) or 0.8 nm (Nkp30) was reached), Baseline for 60 seconds, Association for 600 seconds, and Dissociation for 600 seconds. At that time, the monobody concentrations were equally set to 40 nM. The acquired data were analyzed with ForteBio Data Analysis 10.0. Only samples for which binding ability and specificity were found were subjected to measurement of dissociation constants under different conditions. The measurement conditions are shown in a table given below. Dip, Baseline, Association, and Dissociation were performed for the same times as in examining binding ability and specificity. The monobodies were serially diluted from the highest concentration by a factor of 2 to prepare five concentrations for use in measurement.
(§2) The binding abilities and specificities of all the clones expressed and purified in Example 3 were examined, and the values of dissociation constants were measured. FIGS. 5 to 7 show the measurement results. In the top graphs in each of FIGS. 5 to 7, upper lines show results of measurement of the binding abilities of the monobodies with binding of a target to the tip of the sensor, and lower lines show results of examination on whether a monobody was bound only to the sensor without binding of a target to the sensor. Mb in the graphs is an abbreviation for monobody concentration. For any of the clones, the monobody was bound to the sensor when a target was fixed on the sensor, and no binding was found when a target was not fixed on the sensor. The bottom graphs in each of FIGS. 5 to 7 show results of measurement of dissociation constants for five concentrations.

[2] = target: T2, Biotinylated Human 2B4/CD244/SLAMF4 Protein, Fc, Avitag (2B4-H82F0) (human, UniProt Q9BZW8-2 22-221, biotinylated (Avitag))
T2 construct: Bought from ACROBiosystems, catalog 2B4-H82F0; not shown: Fc and Avitag of the purchased protein
T2 sequence (looked up): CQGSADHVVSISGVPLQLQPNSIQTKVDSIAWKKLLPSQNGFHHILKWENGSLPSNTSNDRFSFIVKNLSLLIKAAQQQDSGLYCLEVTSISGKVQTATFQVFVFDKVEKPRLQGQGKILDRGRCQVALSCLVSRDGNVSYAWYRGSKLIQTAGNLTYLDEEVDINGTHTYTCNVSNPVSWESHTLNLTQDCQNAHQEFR
Procedure: as §1, §2

[3] = target: T3, Biotinylated Human NKp46/NCR/CD335 Protein, Fc, Avitag (NC1-H82F9) (human, UniProt O76036 22-255, biotinylated (Avitag))
T3 construct: Bought from ACROBiosystems, catalog NC1-H82F9; not shown: Fc and Avitag of the purchased protein
Procedure: as §1, §2

[4] = target: T4, Biotinylated Human 2B4/CD244/SLAMF4 Protein, Fc, Avitag (2B4-H82F0) (human) (UniProt Q9BZW8)
T4 sequence (biotinylated (Avitag), looked up): T2 sequence (looked up)

T3 sequence (O76036 22-255): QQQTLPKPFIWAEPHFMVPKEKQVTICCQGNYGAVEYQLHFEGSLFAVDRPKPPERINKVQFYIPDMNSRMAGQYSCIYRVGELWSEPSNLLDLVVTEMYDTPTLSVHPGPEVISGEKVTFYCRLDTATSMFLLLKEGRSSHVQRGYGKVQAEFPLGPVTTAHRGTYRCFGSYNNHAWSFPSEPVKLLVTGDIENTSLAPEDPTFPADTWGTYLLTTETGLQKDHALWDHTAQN

B2: Mb-2B4-CD-1 (designed binder)
chain: LEVVEASPTSIQISWDAPAVTVRYYGIYYGETGTSPWVYNGYVQEFTVPGSKSTATISGLKPGVDYTITVYAVTDQYKSWNLEEFHPISINYRTEIDKPSQ
notes: Monobody on human fibronectin type III domain scaffold, CD-FG library; also called 2B4 CD-FG No. 1; not shown: Sortase A recognition site, His tag and any linker (X8n8) at the C terminus; MPNR in the library
- Kd [2]: 2.8 nM
- koff [2]: 0.0002 s⁻¹
- kon [2]: 71000 M⁻¹ s⁻¹

B3: Mb-NKp46-CD-3 (designed binder)
chain: LEVVEASPTSIQISWDAPAVTVRYYVISYGETGRYKYHRRINVQGFTVPGSKSTATISGLKPGVDYTITVYAVTGTQWYVFNEAGDVAGYPISINYRTEIDKPSQ
notes: Monobody on human fibronectin type III domain scaffold, CD-FG library; also called NKp46 CD-FG No. 3; not shown: N-terminal residues of the expression construct (X7n7; the library has MPNR), linker, Sortase A recognition site and His tag
- Kd [3]: 0.98 nM
- koff [3]: 7e-05 s⁻¹
- kon [3]: 72000 M⁻¹ s⁻¹

B4: Mb-2B4-CD-3 (designed binder)
chain: LEVVEASPTSIQISWDAPAVTVRYYEILYGETGTPPWIHKGWVQYFTVPGSKSTATISGLKPGVDYTITVYAVTVTPYGRKWVGMNGWPISINYRTEIDKPSQ
notes: Monobody on human fibronectin type III domain scaffold, CD-FG library; also called 2B4 CD-FG No. 3; not shown: Sortase A recognition site, His tag and any linker (X8n8) at the C terminus; MPNR in the library
- Kd [2]: 1.5 nM
- koff [2]: 0.00035 s⁻¹
- kon [2]: 230000 M⁻¹ s⁻¹

B6: Mb-2B4-BC-2 (designed binder, part only; not given: N-terminal start, linker, sortase site, tag, not shown: small tags and cut ends)
chain, part: LEVVEASPTSIQISWDAQAYWFEYTWWVRYYRITYGETGGNSPVQEFTVPGSKSTATISGLKPGVDYTITVYAVTLEWVYDDQWTSGPISINYRTEIDKPSQ
- Kd [4]: 1 nM
- koff [4]: 9.3e-05 s⁻¹
- kon [4]: 92000 M⁻¹ s⁻¹

B8: Mb-NKp30-CD-9 (designed binder)
chain: LEVVEASPTSIQISWDAPAVTVRYYVITYGETGWSWESYWHGTYVQQFTVPGSKSTATISGLKPGVDYTITVYAVTTFMKDIPSYYPISINYRTEIDKPSQ
notes: Monobody on human fibronectin type III domain scaffold, CD-FG library; also called NKp30 CD-FG No. 9; not shown: N-terminal residues of the expression construct (X7n7; the library has MPNR), linker, Sortase A recognition site and His tag
- Kd [1]: 0.35 nM
- koff [1]: 0.00029 s⁻¹
- kon [1]: 810000 M⁻¹ s⁻¹

B9: Mb-NKp46-BC-2 (designed binder)
chain: LEVVEASPTSIQISWDAWTWLGYEYYWVRYYRITYGETGGNSPVQEFTVPGSKSTATISGLKPGVDYTITVYAVTWDSKPGAIGIPISINYRTEIDKPSQ
notes: Monobody on human fibronectin type III domain scaffold, BC-FG library; also called NKp46 BC-FG No. 2; not shown: N-terminal residues of the expression construct (X7n7; the library has MPNR), linker, Sortase A recognition site and His tag
- Kd [3]: 1.2 nM
- koff [3]: 0.00047 s⁻¹
- kon [3]: 380000 M⁻¹ s⁻¹

Continued, values first:

- Kd [1]: 0.038 nM
- koff [1]: 2.7e-05 s⁻¹
- kon [1]: 720000 M⁻¹ s⁻¹
B1: Mb-NKp30-BC-2 (designed binder)
chain: LEVVEASPTSIQISWDALWHYYGDQYWVRYYRITYGETGGNSPVQEFTVPGSKSTATISGLKPGVDYTITVYAVTWMYVPEYYFNPWPISINYRTEIDKPSQ
notes: Monobody on human fibronectin type III domain scaffold, BC-FG library; also called NKp30 BC-FG No. 2; not shown: N-terminal residues of the expression construct (X7n7; the library has MPNR), linker, Sortase A recognition site and His tag

- Kd [3]: 0.14 nM
- koff [3]: 7.2e-05 s⁻¹
- kon [3]: 530000 M⁻¹ s⁻¹
B5: Mb-NKp46-CD-1 (designed binder)
chain: LEVVEASPTSIQISWDAPAVTVRYYDIYYGETGPGYYMWQRGVINVQAFTVPGSKSTATISGLKPGVDYTITVYAVTGQERAYGHPEHFPISINYRTEIDKPSQ
notes: Monobody on human fibronectin type III domain scaffold, CD-FG library; also called NKp46 CD-FG No. 1; not shown: N-terminal residues of the expression construct (X7n7; the library has MPNR), linker, Sortase A recognition site and His tag

- Kd [1]: 0.27 nM
- koff [1]: 0.00024 s⁻¹
- kon [1]: 900000 M⁻¹ s⁻¹
B7: Mb-NKp30-BC-6 (designed binder)
chain: LEVVEASPTSIQISWDATDRNYDITYGMQVRYYRITYGETGGNSPVQEFTVPGSKSTATISGLKPGVDYTITVYAVTYWWDGYSYSEEAWYYPISINYRTEIDKPSQ
notes: Monobody on human fibronectin type III domain scaffold, BC-FG library; also called NKp30 BC-FG No. 6; not shown: N-terminal residues of the expression construct (X7n7; the library has MPNR), linker, Sortase A recognition site and His tag

- Kd [3]: < 0.01 nM
- koff [3]: < 1e-06 s⁻¹
- kon [3]: 100000 M⁻¹ s⁻¹
B10: Mb-NKp46-BC-3 (designed binder)
chain: LEVVEASPTSIQISWDATYWDWGFRVRYYRITYGETGGNSPVQEFTVPGSKSTATISGLKPGVDYTITVYAVTWSWARRTHISWFPISINYRTEIDKPSQ
notes: Monobody on human fibronectin type III domain scaffold, BC-FG library; also called NKp46 BC-FG No. 3; not shown: N-terminal residues of the expression construct (X7n7; the library has MPNR), linker, Sortase A recognition site and His tag
